We go through two molecules from paper PMC9524831 (Science Advances, 2022).

Numbering of substitutions follows the chain as printed. In names and notes the source's numbering stands.

This assay deals with HA-GluA1 (mouse AMPA receptor subunit GluA1) (mouse, UniProt P23818 19-907). Kind of assay: cell-based or functional assay.
Sequence of HA-GluA1 (mouse AMPA receptor subunit GluA1) (P23818 19-907): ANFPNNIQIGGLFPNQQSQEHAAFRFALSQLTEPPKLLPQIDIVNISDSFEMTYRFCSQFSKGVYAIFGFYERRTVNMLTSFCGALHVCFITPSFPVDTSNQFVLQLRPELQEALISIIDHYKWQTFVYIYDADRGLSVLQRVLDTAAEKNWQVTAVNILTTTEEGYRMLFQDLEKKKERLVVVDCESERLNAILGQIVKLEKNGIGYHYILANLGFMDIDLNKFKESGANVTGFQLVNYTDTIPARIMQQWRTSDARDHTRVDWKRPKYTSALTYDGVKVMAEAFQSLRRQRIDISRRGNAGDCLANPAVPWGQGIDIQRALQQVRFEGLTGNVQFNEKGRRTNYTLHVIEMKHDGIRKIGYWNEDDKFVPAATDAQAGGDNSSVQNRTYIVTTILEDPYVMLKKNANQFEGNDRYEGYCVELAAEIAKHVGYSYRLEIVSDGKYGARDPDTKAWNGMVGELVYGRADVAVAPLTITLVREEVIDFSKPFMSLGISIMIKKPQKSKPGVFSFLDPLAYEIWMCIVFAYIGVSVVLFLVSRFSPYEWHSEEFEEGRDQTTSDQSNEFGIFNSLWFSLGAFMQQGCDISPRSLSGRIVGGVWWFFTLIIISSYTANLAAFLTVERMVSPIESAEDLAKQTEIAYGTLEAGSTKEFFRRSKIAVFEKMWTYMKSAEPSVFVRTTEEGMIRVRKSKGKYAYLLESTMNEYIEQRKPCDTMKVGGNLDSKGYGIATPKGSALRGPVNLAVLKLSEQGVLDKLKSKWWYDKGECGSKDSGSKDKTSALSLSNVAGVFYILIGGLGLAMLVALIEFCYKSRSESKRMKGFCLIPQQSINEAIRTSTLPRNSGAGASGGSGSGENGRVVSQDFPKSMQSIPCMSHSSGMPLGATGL

B1: RNF220(R363Q) (enzyme, mouse, UniProt Q6PDX6 1-566, looked up)
chain: MDLHRAAFKMENSSYLPNPLASPALMVLASTAEASRDASIPCQQPRPFGVPVSVDKDVHIPFTNGSYTFASMYHRQGGVPGTFANRDFPPSLLHLHPQFAPPNLDCTPISMLNHSGVGAFRPFASTEDRESYQSAFTPAKRLKNCHDTESPHLRFSDADGKEYDFGTQLPSSSPGSLKVDDTGKKIFAVSGLISDRETSSSPEDRNDRCKKKAVALFDSQAPLCPICQVLLRPSELQEHMEQELEQLAQLPASKNSLLKDAMAPGTPKSLLLSASIKREGDSPTASPHSSATEDLHHSDRYQTFLRVRANRQTRLNARIGKMKRRKQDEGQREGSCMAEDDAVDIEHADSNRFEEYEWCGQKQIRATTLLEGGFRGSGFVMCSGKENPDSDADLDVDGDDTLEYGKPQYTEADVIPCTGEEPGEAKEREALRGAVLNGGPPSTRITPEFSKWASDEMPSTSNGEGSKQEAMQKTCKNSDIEKITEESAVTTFEALKARVRELERQLSRGDRYKCLICMDSYSMPLTSIQCWHVHCEECWLRTLGAKKLCPQCNTITAPGDLRRIYL
As for B1, the “GluA1 polyubiquitination level relative to wild-type RNF220 transfection” value worked out at 0.34.

B2: RNF220(R365Q) (enzyme, mouse, UniProt Q6PDX6 1-566, looked up)
chain: B1 chain with Q363R, R365Q
In the case of B2, the “GluA1 polyubiquitination level relative to wild-type RNF220 transfection” value was 0.3.
